This note sets out measurements from PMC2768378.

Assay [1] has as its target single chain H2A.Z-H2B (single stranded H2A.Z-H2B protein) (budding yeast). Kind of assay: ITC. In general terms: ITC needs no label: the signal is the heat of the interaction.
For assay [2] the target is unchanged. Kind of assay: CPMG relaxation dispersion NMR.

B1: Chz.core (residues 71–132 of Chz1) (domain or fragment)
chain: DMDDAKLDALMGNEGEEEEDDLAEIDTSNIITSGRRTRGKVIDYKKTAEELDKKEPSTGSKD
One may read the Kd as the concentration at which binding is half-saturated. Lower therefore signals higher affinity. A word on the koff: it is a measure of how fast the partners let go of each other. In the case of B1, the results for the Kd in assay [1] and in assay [2] were 100 nM and 220 nM, respectively. In assay [2], this molecule returned an off-rate constant (koff) of 22 s⁻¹.
